The record followed here is patent US20110039758A1 (published 2011).

The target of assay [1] is T1, GST-PSD95 PDZ domain 3 (human).
T1 construct: also called PSD95 d3; PSD95 domain 3
Put plainly: G assay.

Assay [2] deals with T2, GST-PSD95 PDZ domain 1 (human).
T2 construct: also called PSD95 d1; PSD-95 d1
As to the kind of experiment: G assay with MBP-nNOS, anti-MBP-HRP detection, FIG. 11.
Experimental: This protein was used in the G assay in place of a labeled peptide to assess the interaction between PSD95 domains 1 and 2 and nNOS, and detection was performed using an HRP-conjugated antibody against MBP. […] MBP/PSD95 indicates a negative control containing MBP without the nNOS sequences.

Assay [3] has as its target T3, GST-PSD95 PDZ domain 2 (human).
T3 construct: also called PSD95 d2; PSD-95 d2
As to the kind of experiment: G assay competition against NMDAR2A or R2B peptide, FIG. 10.

Assay [4] addresses T2, GST-PSD95 PDZ domain 1. Put plainly: G assay.
In assay [5] the target is T3, GST-PSD95 PDZ domain 2. As to the kind of experiment: G assay.

Ends that are not written are not given here. * marks the point of attachment. Biotin = O=C1N[C@H]2[C@H](CS[C@H]2CCCCC(=O)*)N1

T1 sequence (chain, as listed by the source): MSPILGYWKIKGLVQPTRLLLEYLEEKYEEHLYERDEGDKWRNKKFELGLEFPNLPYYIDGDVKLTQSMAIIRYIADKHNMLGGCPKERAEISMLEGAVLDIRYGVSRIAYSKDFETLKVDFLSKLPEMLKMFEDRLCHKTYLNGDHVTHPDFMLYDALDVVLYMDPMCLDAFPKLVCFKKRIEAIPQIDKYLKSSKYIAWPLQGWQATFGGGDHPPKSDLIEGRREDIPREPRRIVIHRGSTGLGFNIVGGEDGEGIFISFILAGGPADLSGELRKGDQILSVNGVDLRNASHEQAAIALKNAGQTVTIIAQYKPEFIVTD
T2 sequence (chain, as listed by the source): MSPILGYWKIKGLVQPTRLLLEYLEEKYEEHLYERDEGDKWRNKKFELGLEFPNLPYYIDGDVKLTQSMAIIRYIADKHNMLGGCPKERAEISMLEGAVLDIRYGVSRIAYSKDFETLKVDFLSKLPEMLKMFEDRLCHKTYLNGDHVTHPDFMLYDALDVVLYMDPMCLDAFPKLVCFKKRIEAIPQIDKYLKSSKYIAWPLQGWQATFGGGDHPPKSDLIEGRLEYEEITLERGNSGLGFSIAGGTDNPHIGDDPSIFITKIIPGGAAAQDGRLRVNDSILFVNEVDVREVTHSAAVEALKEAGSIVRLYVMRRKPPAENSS

On to Biotin-ESSGTQSPKRHSGSYLVTSV [ESSGTQSPKRHSGSYLVTSV peptide], for which the “Average OD” value in assay [1] came to 0.7 OD.

B1: Maltose Binding Protein (MBP) fused to amino acids 1-120 of nNOS (other, UniProt P29475 1-120, looked up, not shown: large carriers)
chain: MEDHMFGVQQIQPNVISVRLFKRKVGGLGFLVKERVSKPPVIISDLIRGGAAEQSGLIQAGDIILAVNGRPLVDLSYDSALEVLRGIASETHVVLILRGPEGFTTHLETTFTGDGTPKTI
notes: range 1-120; also called MBP-nNOS; internal PL of nNOS
Regarding B1, the binding result in assay [2] is on record as “no binding”.

Regarding YGRKKRRQRRREKHFRETEV (also: N-terminal biotin when used as labelled ligand) [TatTAX: TAT transporter sequence coupled to the C-terminal 9 amino acids of Tax], the IC50 in assay [3] fell in the range of 0.1 to 1 µM. Further, the “Average OD” value in assay [4] was determined as 2.81 OD; in assay [5] it was 2.79 OD; in assay [1] it was 2.93 OD.

A word on the IC50: it is the concentration that inhibits the measured activity by half. Lower therefore signals inhibition by little substance.
